Laboratory results as given in publication PMC9249894 (2022).

Target: Ubiquitin (Homo sapiens, UniProt P0CG48)
Test: NMR titration

B1: CIN85 SH3c 263-333 (protein)
chain: DSRTKSKDYCKVIFPYEAQNDDELTIKEGDIVTLINKDCIDVGWWEGELNGRRGVFPDNFVKLLPPDFEKE
Kd: 370 µM
